From patent US20230174596A1 (published 2023) come the findings set out here.

The Kd is the free concentration of one partner at which half of the binding sites on the other are occupied at equilibrium, for simple one-to-one binding. Low readings indicate higher affinity, high ones lower affinity.

Sequences and labels used below:
B1: VEGF_CKP9.63.44 (designed binder)
chain: GCDVMQPYWGCEMDFDCLAGCVCHWYNSCG
notes: also called L2.9.63.44
B2: VEGF_CKP9.63.1 (designed binder)
chain: GCDVMQPYWGCGENFLCLAGCVCHWYNSCG
notes: also called L2.9.63.1
B3: VEGF_CKP9.63.69 (designed binder)
chain: B2 chain with N14S, F15L, L16S
notes: also called L2.9.63.69
B4: VEGF_CKP9.63.27 (designed binder)
chain: B1 chain with E12G, M13R, F15M
notes: also called L2.9.63.27
B5: LRP6_CKP20 (designed binder)
chain: GCENRTKGCKQDSDCLAGCVCGFRGTCG
B6: LRP6_CKP21 (designed binder)
chain: GCGNKIRACKQDSDCLAGCVCRDRVGCG
B7: LRP6_CKP15 (designed binder)
chain: GCNRIRNSCKQDSDCLAGCVCGRGDYCG
B8: LRP6_CKP14 (designed binder)
chain: GCGSNKIRPRCKQDSDCLAGCVCGPNDFCG
B9: LRP6_CKP18 (designed binder)
chain: GCRANRVSGRCKQDSDCLAGCVCGPNGFCG
B10: LRP6_CKP16 (designed binder)
chain: GCSRNSIKCKQDSDCLAGCVCASGSSCG
B11: LRP6_CKP22 (designed binder)
chain: GCANRVKRTSCKQDSDCLAGCVCGPNGFCG
B12: LRP6_CKP17 (designed binder)
chain: GCSNYVKRCKQDSDCLAGCVCSPGGRCG
B13: LRP6_CKP19 (designed binder)
chain: GCSNRVKVRACKQDSDCLAGCVCGPNGFCG
B14: VEGF_CKP9 (designed binder)
chain: GCQLMQPFWGCKQDSDCLAGCVCHWYQSCG
B15: VEGF_CKP7 (designed binder)
chain: GCQDPTFNWALYCKQDSDCLAGCVCQMYQSCG
B16: VEGF_CKP12 (designed binder)
chain: GCTTPWPPHEIMCKQDSDCLAGCVCGPNGFCG
B17: VEGF_CKP6 (designed binder)
chain: GCPTTRFKQYCKQDSDCLAGCVCGPNGFCG
B18: VEGF_CKP10 (designed binder)
chain: GCRDLDVKWDCKQDSDCLAGCFCQYYSSCG
B19: VEGF_CKP9.54.90.13 (designed binder)
chain: GCNIMLPFWGCGRDFECMNQCICQYYQSCG
B20: VEGF_CKP9.54.90 F7Y Δ2G (designed binder)
chain: CNIMLPYWGCGRDFECLAGCVCQYYQSC
B21: VEGF_CKP9.63.12.12 (designed binder)
chain: GCDVMQPYWGCGPDIDCLSNCICHWYNSCG
B22: VEGF_CKP9.54.90.62.F8Y (designed binder)
chain: GCNIMLPYWGCGRDFECFYECICQYYQSCG
B23: VEGF_CKP9.54.90.44 (designed binder)
chain: B19 chain with M18F, N19I, Q20N
B24: VEGF_CKP9.54.90.13.F8Y (designed binder)
chain: B19 chain with F8Y
B25: VEGF_CKP9.54.90.67 (designed binder)
chain: B19 chain with N19E
B26: VEGF_CKP9.54.90.62 (designed binder)
chain: B22 chain with Y8F
B27: VEGF_CKP9.54.90.12 (designed binder)
chain: B19 chain with N19S, Q20D
B28: VEGF_CKP9.54.90.25 (designed binder)
chain: B19 chain with N19Q, Q20T

Changes are numbered by the printed parent chain. Names and notes keep the numbering of the source.

The first experiment deals with T1, hVEGF-A (8-109) (human, UniProt P15692 214-315).
T1 construct: residue numbers count on mature VEGF-A; dimer
T1 sequence (looked up): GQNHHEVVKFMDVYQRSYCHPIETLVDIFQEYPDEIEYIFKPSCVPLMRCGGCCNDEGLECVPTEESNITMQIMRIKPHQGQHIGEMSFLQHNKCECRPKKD
The experiment is described as follows: SPR.
Conditions: not given
In turn, B1 gave a Kd of 1.2 nM.

B2 returned a Kd of 5.8 nM.

B3 displayed a Kd of 6.9 nM.

Regarding B4, binding was characterised by a dissociation constant (Kd) of 1.4 nM.

In another experiment the target is LRP6 E1E2 protein (human) (UniProt O75581). The experiment can be described thus: spot phage ELISA.
Chain of LRP6 E1E2 protein (human) (O75581 20-630 limits assumed): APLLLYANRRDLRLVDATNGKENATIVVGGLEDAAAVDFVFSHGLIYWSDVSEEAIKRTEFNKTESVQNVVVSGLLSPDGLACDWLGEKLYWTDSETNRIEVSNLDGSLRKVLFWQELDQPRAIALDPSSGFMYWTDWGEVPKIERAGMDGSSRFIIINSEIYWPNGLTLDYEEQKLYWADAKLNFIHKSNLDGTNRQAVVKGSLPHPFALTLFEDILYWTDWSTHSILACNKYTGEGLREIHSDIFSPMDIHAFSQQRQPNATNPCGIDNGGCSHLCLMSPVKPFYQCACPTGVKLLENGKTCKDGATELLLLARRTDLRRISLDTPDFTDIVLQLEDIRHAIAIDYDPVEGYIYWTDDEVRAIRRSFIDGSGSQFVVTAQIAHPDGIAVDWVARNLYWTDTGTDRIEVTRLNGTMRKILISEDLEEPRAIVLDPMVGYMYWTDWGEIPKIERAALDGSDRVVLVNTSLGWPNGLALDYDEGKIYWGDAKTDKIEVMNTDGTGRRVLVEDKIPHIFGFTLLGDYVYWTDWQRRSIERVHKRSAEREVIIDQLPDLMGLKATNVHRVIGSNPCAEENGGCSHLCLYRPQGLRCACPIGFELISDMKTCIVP
Conditions: not given
(In an ELISA, binding on a coated surface is turned into a signal by an enzyme label.)
B5: the ELISA is 3.1 and the S/N stood at 38.7.

On to B6, for which the ELISA was found to be 2.8 and the S/N amounted to 33.7.

Molecule B7 gave an ELISA of 2.03 and a S/N of 26.3.

As for B8, the ELISA was determined as 3.18 and the S/N worked out at 43.5.

With B9, the ELISA came to 1.67 and the S/N was determined as 18.3.

Molecule B10 gave an ELISA of 3.36 and a S/N of 31.1.

In turn, B11 showed an ELISA of 3.43 and a S/N of 42.9.

Consider B12, for which the ELISA was determined as 3.09 and the S/N worked out at 35.9.

The molecule B13 showed an ELISA of 3.27 and a S/N of 42.

The target in a further experiment is T1, hVEGF-A (8-109). The experiment can be described thus: spot phage ELISA.
Conditions: not given
In the case of B14, the ELISA came out at 0.4 and the S/N was found to be 7.4.

B15 returned an ELISA of 3.4 and a S/N of 54.5.

On to B16, for which the ELISA was found to be 3.5 and the S/N was 55.2.

As for B17, the ELISA was determined as 3.5 and the S/N is 51.9.

As for B18, the ELISA stood at 3.2 and the S/N turned out to be 43.7.

The same experiment, now with this note: record 2.
For B14, the ELISA is 0.9 and the S/N is 11.6.

Molecule B15 registered an ELISA of 0.1 and a S/N of 1.3.

Staying with this experiment, now noted: record 3.
Turning to B14, the ELISA was determined as 3.3 and the S/N was 36.

The next experiment deals with T2, rat VEGF-A (rat, UniProt P16612-2 27-190, limits assumed).
T2 sequence (looked up): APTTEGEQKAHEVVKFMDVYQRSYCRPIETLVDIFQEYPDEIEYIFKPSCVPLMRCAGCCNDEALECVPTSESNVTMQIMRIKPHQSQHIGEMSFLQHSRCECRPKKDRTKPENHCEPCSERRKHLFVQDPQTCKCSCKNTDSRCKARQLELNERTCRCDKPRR
The experiment can be described thus: cell-based or functional assay.
Conditions: not given
In the case of B14, the “Cellular Assay IC50, rVEGF (50 ng/ml)” value was found to be 1 µM.

As to B15, the “Cellular Assay IC50, rVEGF (50 ng/ml)” value was determined as 7 µM.

Turning to B16, the “Cellular Assay IC50, rVEGF (50 ng/ml)” value is 1220 µM.

Regarding B17, the “Cellular Assay IC50, rVEGF (50 ng/ml)” value was 711 µM.

On to B18, for which the “Cellular Assay IC50, rVEGF (50 ng/ml)” value came to 18 µM.

The target in the next experiment is T3, human VEGF-A (human, UniProt P15692-4 34-135, limits assumed).
T3 sequence (looked up): T1 sequence (looked up)
The experiment can be described thus: cell-based or functional assay.
Conditions: not given
Consider B14, for which the “Cellular Assay IC50, hVEGF-A (25 ng/ml)” value stood at 12 µM.

On to B15, for which the “Cellular Assay IC50, hVEGF-A (25 ng/ml)” value came out at 18 µM.

Consider B19, for which the Cellular IC50 worked out at 0.96 nM and the fold improvement relative to variant 9.54.90 (cellular IC50) is 1.41 fold.

With B20, the Cellular IC50 was determined as 3.01 nM and the fold improvement relative to variant 9.54.90 (cellular IC50) came out at 0.44 fold.

Take B16: the “Cellular Assay IC50, hVEGF-A (25 ng/ml)” value came out at 102 µM.

Consider B17, for which the “Cellular Assay IC50, hVEGF-A (25 ng/ml)” value is 47 µM.

On to B21, for which the Cellular IC50 was determined as 0.56 nM and the fold improvement relative to variant 9.54.90 (cellular IC50) turned out to be 2.41 fold.

With B22, the Cellular IC50 worked out at 1.14 nM and the fold improvement relative to variant 9.54.90 (cellular IC50) is 1.18 fold.

In the case of B23, the Cellular IC50 stood at 1.16 nM and the fold improvement relative to variant 9.54.90 (cellular IC50) was found to be 1.16 fold.

For B24, the Cellular IC50 stood at 2.02 nM and the fold improvement relative to variant 9.54.90 (cellular IC50) amounted to 0.67 fold.

B25: the Cellular IC50 worked out at 1.1 nM and the fold improvement relative to variant 9.54.90 (cellular IC50) was found to be 1.23 fold.

Consider B18, for which the “Cellular Assay IC50, hVEGF-A (25 ng/ml)” value was found to be 45 µM.

Regarding B26, the Cellular IC50 worked out at 0.92 nM and the fold improvement relative to variant 9.54.90 (cellular IC50) came to 1.47 fold.

As for B27, the Cellular IC50 worked out at 1.2 nM and the fold improvement relative to variant 9.54.90 (cellular IC50) was found to be 1.12 fold.

Take B28: the Cellular IC50 was 1.26 nM and the fold improvement relative to variant 9.54.90 (cellular IC50) was found to be 1.07 fold.

The experiment is the same for the next values; noted with them: record 2.
B21 displayed a Cellular IC50 of 0.5 nM.

The molecule B25 registered a Cellular IC50 of 1 nM.

The next experiment has as its target T4, mVEGF (mouse, UniProt Q00731-2 27-190, limits assumed).
T4 sequence (looked up): T2 sequence (looked up) with A10S, V14I, V75I
The experiment can be described thus: cell-based or functional assay.
Conditions: not given
For B14, the “Cellular Assay IC50, mVEGF (50 ng/ml)” value worked out at 10 µM.

Consider B15, for which the “Cellular Assay IC50, mVEGF (50 ng/ml)” value was found to be 39 µM.

For B16, the “Cellular Assay IC50, mVEGF (50 ng/ml)” value was determined as 243 µM.

Take B17: the “Cellular Assay IC50, mVEGF (50 ng/ml)” value stood at 169 µM.
